Assay results: patent US20170029894A1 (Novartis, published 2017)

Assays:
Assay in all cases: peptide array of 15-mer IL-13 peptides
[1] = molecular target: IL-13 peptide 1 (…) (human)
[2] = molecular target: IL-13 peptide 10 (…) (human)
[3] = molecular target: IL-13 peptide 11 (…) (human)
[4] = molecular target: IL-13 peptide 12 (…) (human)
[5] = molecular target: IL-13 peptide 13 (…) (human)
[6] = molecular target: IL-13 peptide 14 (…) (human)
[7] = molecular target: IL-13 peptide 15 (…) (human)
[8] = molecular target: IL-13 peptide 16 (…) (human)
[9] = molecular target: IL-13 peptide 17 (…) (human)
[10] = molecular target: IL-13 peptide 18 (…) (human)
[11] = molecular target: IL-13 peptide 19 (…) (human)
[12] = molecular target: IL-13 peptide 2 (…) (human)
[13] = molecular target: IL-13 peptide 20 (…) (human)
[14] = molecular target: IL-13 peptide 21 (…) (human)
[15] = molecular target: IL-13 peptide 22 (…) (human)
[16] = molecular target: IL-13 peptide 23 (…) (human)
[17] = molecular target: IL-13 peptide 24 (…) (human)
[18] = molecular target: IL-13 peptide 25 (…) (human)
[19] = molecular target: IL-13 peptide 26 (…) (human)
[20] = molecular target: IL-13 peptide 27 (…) (human)
[21] = molecular target: IL-13 peptide 28 (…) (human)
[22] = molecular target: IL-13 peptide 29 (…) (human)
[23] = molecular target: IL-13 peptide 3 (…) (human)
[24] = molecular target: IL-13 peptide 30 (…) (human)
[25] = molecular target: T1, IL-13 peptide 6 (EELVNITQNQKAPLC) (human)
T1 peptide: EELVNITQNQKAPLC
Description: (§1) The sequence of IL-13 was probed at the peptide level to identify the binding site with ANTIBODY 01951/G12. Thirty four 15-mer peptides were synthesized in order to scan the entire sequence with 12 residue overlap starting from the N-terminus. The synthesis of the peptides, preparation of the peptide-array slides, incubation with antibodies and data analysis where done as described by Maksimov et al. (PLoS ONE 7(3): e34212).
(§2) The binding signal intensity (light unit) observed is reported for each peptide, in column 1 against a control unrelated human antibody and in column 2 against ANTIBODY 01951/G12. Signals above 10000 Light Units are considered as being significant. 2 overlapping peptides in the set of the 34 peptides produced a signal above that threshold, peptide 22 ([…]) (SEQ ID NO: 31) and peptide 23 ([…]) (SEQ ID NO: 32). The overlapping sequence between both peptides is […] (SEQ ID NO: 33).

[26] = molecular target: T2, IL-13 peptide 7 (VNITQNQKAPLCNGS) (human)
T2 peptide: VNITQNQKAPLCNGS
Description: as §1, §2

[27] = molecular target: T3, IL-13 peptide 8 (TQNQKAPLCNGSMVW) (human)
T3 peptide: TQNQKAPLCNGSMVW
Description: as §1, §2

[28] = molecular target: T4, IL-13 peptide 9 (QKAPLCNGSMVWSIN) (human)
T4 peptide: QKAPLCNGSMVWSIN
Description: as §1, §2

[29] = molecular target: T5, IL-13 peptide 10 (PLCNGSMVWSINLTA) (human)
T5 peptide: PLCNGSMVWSINLTA
Description: as §1, §2

[30] = molecular target: T6, IL-13 peptide 11 (NGSMVWSINLTAGMY) (human)
T6 peptide: NGSMVWSINLTAGMY
Description: as §1, §2

[31] = molecular target: T7, IL-13 peptide 12 (MVWSINLTAGMYCAA) (human)
T7 peptide: MVWSINLTAGMYCAA
Description: as §1, §2

[32] = molecular target: T8, IL-13 peptide 13 (SINLTAGMYCAALES) (human)
T8 peptide: SINLTAGMYCAALES
Description: as §1, §2

[33] = molecular target: T9, IL-13 peptide 14 (LTAGMYCAALESLIN) (human)
T9 peptide: LTAGMYCAALESLIN
Description: as §1, §2

[34] = molecular target: T10, IL-13 peptide 15 (GMYCAALESLINVSG) (human)
T10 peptide: GMYCAALESLINVSG
Description: as §1, §2

[35] = molecular target: T11, IL-13 peptide 16 (CAALESLINVSGCSA) (human)
T11 peptide: CAALESLINVSGCSA
Description: as §1, §2

[36] = molecular target: T12, IL-13 peptide 17 (LESLINVSGCSAIEK) (human)
T12 peptide: LESLINVSGCSAIEK
Description: as §1, §2

[37] = molecular target: T13, IL-13 peptide 18 (LINVSGCSAIEKTQR) (human)
T13 peptide: LINVSGCSAIEKTQR
Description: as §1, §2

[38] = molecular target: T14, IL-13 peptide 19 (VSGCSAIEKTQRMLS) (human)
T14 peptide: VSGCSAIEKTQRMLS
Description: as §1, §2

[39] = molecular target: T15, IL-13 peptide 20 (CSAIEKTQRMLSGFC) (human)
T15 peptide: CSAIEKTQRMLSGFC
Description: as §1, §2

[40] = molecular target: T16, IL-13 peptide 21 (IEKTQRMLSGFCPHK) (human)
T16 peptide: IEKTQRMLSGFCPHK
Description: as §1, §2

[41] = molecular target: T17, IL-13 peptide 22 (TQRMLSGFCPHKVSA) (human)
T17 peptide: TQRMLSGFCPHKVSA
Description: as §1, §2

[42] = molecular target: T18, IL-13 peptide 23 (MLSGFCPHKVSAGQF) (human)
T18 peptide: MLSGFCPHKVSAGQF
Description: as §1, §2

[43] = molecular target: T19, IL-13 peptide 25 (PHKVSAGQFSSLHVR) (human)
T19 peptide: PHKVSAGQFSSLHVR
Description: as §1, §2

[44] = molecular target: T20, IL-13 peptide 26 (VSAGQFSSLHVRDTK) (human)
T20 peptide: VSAGQFSSLHVRDTK
Description: as §1, §2

[45] = molecular target: T21, IL-13 peptide 27 (GQFSSLHVRDTKIEV) (human)
T21 peptide: GQFSSLHVRDTKIEV
Description: as §1, §2

[46] = molecular target: T22, IL-13 peptide 28 (SSLHVRDTKIEVAQF) (human)
T22 peptide: SSLHVRDTKIEVAQF
Description: as §1, §2

[47] = molecular target: T23, IL-13 peptide 29 (HVRDTKIEVAQFVKD) (human)
T23 peptide: HVRDTKIEVAQFVKD
Description: as §1, §2

[48] = molecular target: T24, IL-13 peptide 30 (DTKIEVAQFVKDLLL) (human)
T24 peptide: DTKIEVAQFVKDLLL
Description: as §1, §2

[49] = molecular target: T25, IL-13 peptide 31 (IEVAQFVKDLLLHLK) (human)
T25 peptide: IEVAQFVKDLLLHLK
Description: as §1, §2

[50] = molecular target: T26, IL-13 peptide 32 (AQFVKDLLLHLKKLF) (human)
T26 peptide: AQFVKDLLLHLKKLF
Description: as §1, §2

[51] = molecular target: T27, IL-13 peptide 33 (VKDLLLHLKKLFREG) (human)
T27 peptide: VKDLLLHLKKLFREG
Description: as §1, §2

[52] = molecular target: T28, IL-13 peptide 34 (LLLHLKKLFREGRFN) (human)
T28 peptide: LLLHLKKLFREGRFN
Description: as §1, §2

[53] = molecular target: T29, IL-13 peptide 1 (SPGPVPPSTALRELI) (human)
T29 peptide: SPGPVPPSTALRELI
Description: as §1, §2

[54] = molecular target: T30, IL-13 peptide 2 (PVPPSTALRELIEEL) (human)
T30 peptide: PVPPSTALRELIEEL
Description: as §1, §2

[55] = molecular target: T31, IL-13 peptide 3 (PSTALRELIEELVNI) (human)
T31 peptide: PSTALRELIEELVNI
Description: as §1, §2

[56] = molecular target: T32, IL-13 peptide 4 (ALRELIEELVNITQN) (human)
T32 peptide: ALRELIEELVNITQN
Description: as §1, §2

[57] = molecular target: T33, IL-13 peptide 5 (ELIEELVNITQNQKA) (human)
T33 peptide: ELIEELVNITQNQKA
Description: as §1, §2

control unrelated human antibody
Corrected Mean signal intensity (Light Unit) [1]: 44.3 Light Unit | Corrected Mean signal intensity (Light Unit) [2]: -6.5 Light Unit | Corrected Mean signal intensity (Light Unit) [3]: -5 Light Unit | Corrected Mean signal intensity (Light Unit) [4]: 19 Light Unit | Corrected Mean signal intensity (Light Unit) [5]: -1.5 Light Unit | Corrected Mean signal intensity (Light Unit) [6]: 1 Light Unit | Corrected Mean signal intensity (Light Unit) [7]: 1 Light Unit | Corrected Mean signal intensity (Light Unit) [8]: 1 Light Unit | Corrected Mean signal intensity (Light Unit) [9]: 18.7 Light Unit | Corrected Mean signal intensity (Light Unit) [10]: 12.5 Light Unit | Corrected Mean signal intensity (Light Unit) [11]: 15 Light Unit | Corrected Mean signal intensity (Light Unit) [12]: -9 Light Unit | Corrected Mean signal intensity (Light Unit) [13]: 26 Light Unit | Corrected Mean signal intensity (Light Unit) [14]: 101 Light Unit | Corrected Mean signal intensity (Light Unit) [15]: 123 Light Unit | Corrected Mean signal intensity (Light Unit) [16]: 23 Light Unit | Corrected Mean signal intensity (Light Unit) [17]: 3.3 Light Unit | Corrected Mean signal intensity (Light Unit) [18]: -24.7 Light Unit | Corrected Mean signal intensity (Light Unit) [19]: 3.7 Light Unit | Corrected Mean signal intensity (Light Unit) [20]: -10.5 Light Unit | Corrected Mean signal intensity (Light Unit) [21]: -6 Light Unit | Corrected Mean signal intensity (Light Unit) [22]: -17 Light Unit | Corrected Mean signal intensity (Light Unit) [23]: -7.3 Light Unit | Corrected Mean signal intensity (Light Unit) [24]: -13 Light Unit

B1: ANTIBODY 01951/G12 (antibody, human IgG1, kappa, V domains shown)
VH: EVQLVESGGGVVQPGRSLRLSCAASGFTFSSYGMHWVRQAPGKGLEWVAIIWYDGSNKYYADSVKGRFTISRDNSKNTLYLQMNSLRAEDTAVYYCARLWFGDLDAFDIWGQGTMVTVSS
VL: EIVLTQSPATLSLSPGERAILSCRAGQSVSSYLVWYQQKPGQAPRLLIYDASNRATGIPARFSGSGSGTDFTLTISSLEPEDFAVYYCQQRSSWPPVYTFGQGTKLEIKR
notes: also called target antibody
Corrected Mean signal intensity (Light Unit) [17]: 493 Light Unit | Corrected Mean signal intensity (Light Unit) [25]: 1 Light Unit | binding result [25]: no binding (tested: 10000 Light Units) | Corrected Mean signal intensity (Light Unit) [26]: -405 Light Unit | Corrected Mean signal intensity (Light Unit) [27]: -350 Light Unit | Corrected Mean signal intensity (Light Unit) [28]: -518 Light Unit | Corrected Mean signal intensity (Light Unit) [29]: -982 Light Unit | Corrected Mean signal intensity (Light Unit) [30]: -132 Light Unit | Corrected Mean signal intensity (Light Unit) [31]: 56.5 Light Unit | binding result [31]: no binding (tested: 10000 Light Units) | Corrected Mean signal intensity (Light Unit) [32]: -757 Light Unit | Corrected Mean signal intensity (Light Unit) [33]: -99.7 Light Unit | Corrected Mean signal intensity (Light Unit) [34]: -987 Light Unit | Corrected Mean signal intensity (Light Unit) [35]: -587 Light Unit | Corrected Mean signal intensity (Light Unit) [36]: -340 Light Unit | Corrected Mean signal intensity (Light Unit) [37]: -539 Light Unit | Corrected Mean signal intensity (Light Unit) [38]: -830 Light Unit | Corrected Mean signal intensity (Light Unit) [39]: -721 Light Unit | Corrected Mean signal intensity (Light Unit) [40]: 2210 Light Unit | Corrected Mean signal intensity (Light Unit) [41]: 38600 Light Unit | Corrected Mean signal intensity (Light Unit) [42]: 48100 Light Unit | Corrected Mean signal intensity (Light Unit) [43]: -386 Light Unit | Corrected Mean signal intensity (Light Unit) [44]: -778 Light Unit | Corrected Mean signal intensity (Light Unit) [45]: -291 Light Unit | Corrected Mean signal intensity (Light Unit) [46]: -170 Light Unit | Corrected Mean signal intensity (Light Unit) [47]: -734 Light Unit | Corrected Mean signal intensity (Light Unit) [48]: -438 Light Unit | Corrected Mean signal intensity (Light Unit) [49]: -810 Light Unit | Corrected Mean signal intensity (Light Unit) [50]: -746 Light Unit | Corrected Mean signal intensity (Light Unit) [51]: -203 Light Unit | Corrected Mean signal intensity (Light Unit) [52]: 7150 Light Unit | Corrected Mean signal intensity (Light Unit) [53]: -1070 Light Unit | Corrected Mean signal intensity (Light Unit) [54]: -1130 Light Unit | Corrected Mean signal intensity (Light Unit) [55]: -210 Light Unit | Corrected Mean signal intensity (Light Unit) [56]: -207 Light Unit | Corrected Mean signal intensity (Light Unit) [57]: -131 Light Unit
